Data published in paper PMC10148881, “Recognition of an Ala-rich C-degron by the E3 ligase Pirh2” (Nature Communications, 2023).
Positions count from the first letter of the chain named. Names and notes keep the numbering of the source. Each block holds one binder with its values, some of them ahead of it.

Legend:
[1] = target: T1, Ala6/C-degron peptide (sequence: …); test: ITC; details: chain shown with the change
T1 chain: YKTSAAAAAA

[2] = target: Pirh2 R54A (human) (UniProt Q96PM5); test: ITC; peptides (0.6–1.0 mM) titrated into the cell with 180–220 μM protein at 16 °C; 20 mM Tris-HCl pH 7.5, 150 mM NaCl, 10 μM Zn2+; one-site binding model
[3] = target: Pirh2 with Ser155 substituted with aspartic acid (human) (UniProt Q96PM5); test: as above
[4] = target: Pirh2 D94A (human) (UniProt Q96PM5); test: as above
[5] = target: Pirh2 Q99A (human) (UniProt Q96PM5); test: as above
[6] = target: Pirh2 with Ala159 substituted with aspartic acid (human) (UniProt Q96PM5); test: as above

B3: WT Pirh2 R54A (protein)
chain: MAATAREDGASGQERGQRGCEHYDRGCLLKAPCCDKLYTCRLCHDNNEDHQLDAFKVKEVQCINCEKIQHAQQTCEECSTLFGEYYCDICHLFDKDKKQYHCENCGICRIGPKEDFFHCLKCNLCLAMNLQGRHKCIENVSRQNCPICLEDIHTSRVVAHVLPCGHLLHRTCYEEMLKEGYRCPLCMHS
Kd [1]: > 100 µM

B4: WT Pirh2 A159D (protein)
chain: B3 chain with A54R, A159D
Kd [1]: 7.1 µM

B5: WT Pirh2 D94A (protein)
chain: B3 chain with A54R, D94A
Kd [1]: 3 µM

Binder: YKTSAAAAAA [Ala6/C-degron peptide (sequence: …)]
fold decrease in binding affinity against wild-type Pirh2 [2]: > 6 fold | fold decrease in binding affinity against wild-type Pirh2 [3]: 9 fold | fold decrease in binding affinity against wild-type Pirh2 [4]: > 6 fold | fold decrease in binding affinity against wild-type Pirh2 [5]: > 6 fold | fold decrease in binding affinity against wild-type Pirh2 [6]: 14 fold

Results, then the binder that gave them:

Kd [1]: 4.5 µM
B1: WT Pirh2 S155D (protein)
chain: B3 chain with A54R, S155D

Kd [1]: 3.5 µM
B2: WT Pirh2 Q99A (protein)
chain: B3 chain with A54R, Q99A
